In paper PMC11589680 (Nature Communications, 2024):
Blank lines part the entries; values can stand above or below the binder they belong to.

Experiments:
[1] = target: T1, Retriever complex (VPS35L, VPS26C, VPS29) (human, UniProt Q7Z3J2;O14972;Q9UBQ0-2); experiment: pull-down
[2] = target: T1, Retriever complex (VPS35L, VPS26C, …); experiment: equilibrium pull-down

T1 sequence (Q7Z3J2 whole entry, chain 1 of 2): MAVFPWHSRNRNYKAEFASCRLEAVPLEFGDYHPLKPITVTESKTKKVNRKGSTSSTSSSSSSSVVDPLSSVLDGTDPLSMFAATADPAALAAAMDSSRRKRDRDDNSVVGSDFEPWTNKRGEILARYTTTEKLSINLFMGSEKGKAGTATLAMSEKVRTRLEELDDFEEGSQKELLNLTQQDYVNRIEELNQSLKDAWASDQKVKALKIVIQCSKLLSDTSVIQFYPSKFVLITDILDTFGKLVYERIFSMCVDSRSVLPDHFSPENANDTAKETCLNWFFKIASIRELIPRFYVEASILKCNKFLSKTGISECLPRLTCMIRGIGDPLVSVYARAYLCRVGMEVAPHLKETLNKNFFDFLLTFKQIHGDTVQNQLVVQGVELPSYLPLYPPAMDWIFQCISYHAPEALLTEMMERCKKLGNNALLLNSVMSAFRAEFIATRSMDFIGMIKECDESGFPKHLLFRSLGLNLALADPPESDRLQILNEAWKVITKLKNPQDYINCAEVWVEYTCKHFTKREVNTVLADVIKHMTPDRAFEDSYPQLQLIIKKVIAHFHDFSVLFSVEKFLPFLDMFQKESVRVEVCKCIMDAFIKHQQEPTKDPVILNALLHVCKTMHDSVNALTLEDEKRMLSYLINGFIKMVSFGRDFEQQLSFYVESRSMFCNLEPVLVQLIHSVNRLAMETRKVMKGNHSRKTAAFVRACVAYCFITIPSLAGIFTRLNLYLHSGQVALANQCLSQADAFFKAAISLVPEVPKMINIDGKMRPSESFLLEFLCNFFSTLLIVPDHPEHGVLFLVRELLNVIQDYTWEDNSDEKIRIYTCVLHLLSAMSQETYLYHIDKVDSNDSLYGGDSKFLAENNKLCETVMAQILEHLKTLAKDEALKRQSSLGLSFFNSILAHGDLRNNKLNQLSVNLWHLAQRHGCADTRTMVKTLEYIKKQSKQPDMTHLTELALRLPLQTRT
T1 sequence (O14972 whole entry, chain 2 of 2): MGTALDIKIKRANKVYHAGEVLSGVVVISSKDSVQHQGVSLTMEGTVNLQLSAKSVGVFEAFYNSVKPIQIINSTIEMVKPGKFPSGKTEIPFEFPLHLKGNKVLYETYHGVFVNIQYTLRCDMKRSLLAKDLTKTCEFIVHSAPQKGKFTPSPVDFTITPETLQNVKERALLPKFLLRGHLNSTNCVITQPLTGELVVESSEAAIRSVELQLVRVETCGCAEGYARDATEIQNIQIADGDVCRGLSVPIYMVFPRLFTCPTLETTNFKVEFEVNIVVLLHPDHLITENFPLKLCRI

B1: GST-SNX17 (natural protein)
chain: MHFSIPETESRSGDSGGSAYVAYNIHVNGVLHCRVRYSQLLGLHEQLRKEYGANVLPAFPPKKLFSLTPAEVEQRREQLEKYMQAVRQDPLLGSSETFNSFLRRAQQETQQVPTEEVSLEVLLSNGQKVLVNVLTSDQTEDVLEAVAAKLDLPDDLIGYFSLFLVREKEDGAFSFVRKLQEFELPYVSVTSLRSQEYKIVLRKSYWDSAYDDDVMENRVGLNLLYAQTVSDIERGWILVTKEQHRQLKSLQEKVSKKEFLRLAQTLRHYGYLRFDACVADFPEKDCPVVVSAGNSELSLQLRLPGQQLREGSFRVTRMRCWRVTSSVPLPSGSTSSPGRGRGEVRLELAFEYLMSKDRLQWVTITSPQAIMMSICLQSMVDELMVKKSGGSIRKMLRRRVGGTLRRSDSQQAVKSPPLLESPDATRESMVKLSSKLSAVSLRGIGSPSTDASASDVHGNFAFEGIGDEDL
- binding result [1]: binds

B2: untagged full-length SNX17 (natural protein)
chain: B1 chain
- binding result [1]: binds

B3: GST-SNX17 CT tail, −4 position to Q (peptide)
chain: ASASDVHGNFAFEGIGQEDL
- binding result [1]: binds

B4: GST-tagged CT tail of PATE1 (last 20 amino acids) (peptide)
chain: SVYLVNFRCCRSHDLCNEDL
- binding result [1]: binds

B5: GST-SNX17 CT tail, −4 position to N (peptide)
chain: ASASDVHGNFAFEGIGNEDL
- binding result [1]: binds

B6: GST-SNX17 CT (GST-tagged tail peptide, last 20 residues of SNX17) (peptide)
chain: ASASDVHGNFAFEGIGDEDL
- Kd [2]: ~110 nM

Now from value to binder:

- binding result [1]: binds
B7: GST-tagged CT tail of LRMDA (last 20 amino acids) (peptide)
chain: RYVYYGKNSEGNRFIRDDQL

- binding result [1]: binds
B8: GST-SNX17 CT tail, −6 position to L (peptide)
chain: ASASDVHGNFAFEGLGDEDL

- binding result [1]: binds
B9: GST-tagged CT tail of SNX31 (last 20 amino acids) (peptide)
chain: SKIKIAKDDCVFGNIKEEDL

- binding result [1]: binds
B10: GST-SNX17 CT tail, −6 position to V (peptide)
chain: ASASDVHGNFAFEGVGDEDL
